Laboratory results as given in paper doi:10.1101/2025.09.29.679124 (bioRxiv, 2025).
Values belong to the binder of their own block, whether it stands above or below them.

Legend:
[1] = target: T1, MBP-tagged D3 (2-720) co-expressed with untagged ASK1 (rice (Oryza sativa) | Arabidopsis, UniProt Q5VMP0 2-720; Q39255 1-160); assay: pull-down
T1 sequence (looked up) 1: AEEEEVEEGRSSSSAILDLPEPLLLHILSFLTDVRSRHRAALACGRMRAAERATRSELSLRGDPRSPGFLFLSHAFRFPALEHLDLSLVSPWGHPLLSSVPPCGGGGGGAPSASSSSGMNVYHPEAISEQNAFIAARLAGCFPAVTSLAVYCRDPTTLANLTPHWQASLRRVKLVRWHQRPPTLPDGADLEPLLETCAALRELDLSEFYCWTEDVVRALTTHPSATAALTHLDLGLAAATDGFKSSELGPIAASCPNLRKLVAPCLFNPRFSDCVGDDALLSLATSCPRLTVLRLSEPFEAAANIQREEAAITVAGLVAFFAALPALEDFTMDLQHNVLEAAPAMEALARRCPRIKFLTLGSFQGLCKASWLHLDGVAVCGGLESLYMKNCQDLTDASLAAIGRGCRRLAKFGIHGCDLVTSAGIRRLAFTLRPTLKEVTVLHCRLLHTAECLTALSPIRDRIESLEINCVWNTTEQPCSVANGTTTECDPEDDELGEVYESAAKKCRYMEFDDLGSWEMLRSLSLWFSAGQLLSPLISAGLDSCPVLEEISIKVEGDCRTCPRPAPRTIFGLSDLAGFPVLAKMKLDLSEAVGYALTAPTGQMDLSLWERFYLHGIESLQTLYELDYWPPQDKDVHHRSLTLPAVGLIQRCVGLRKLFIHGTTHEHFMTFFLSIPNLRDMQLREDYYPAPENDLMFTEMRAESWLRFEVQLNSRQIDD
T1 sequence (looked up) 2: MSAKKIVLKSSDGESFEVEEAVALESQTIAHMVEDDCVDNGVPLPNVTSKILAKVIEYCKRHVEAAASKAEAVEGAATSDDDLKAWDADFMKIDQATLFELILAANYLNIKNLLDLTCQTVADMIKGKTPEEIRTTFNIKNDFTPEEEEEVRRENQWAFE

[2] = target: T2, MBP-His-D53-D2 (718-1131) (rice (Oryza sativa), UniProt Q2RBP2 718-1131); assay: pull-down
T2 sequence (looked up): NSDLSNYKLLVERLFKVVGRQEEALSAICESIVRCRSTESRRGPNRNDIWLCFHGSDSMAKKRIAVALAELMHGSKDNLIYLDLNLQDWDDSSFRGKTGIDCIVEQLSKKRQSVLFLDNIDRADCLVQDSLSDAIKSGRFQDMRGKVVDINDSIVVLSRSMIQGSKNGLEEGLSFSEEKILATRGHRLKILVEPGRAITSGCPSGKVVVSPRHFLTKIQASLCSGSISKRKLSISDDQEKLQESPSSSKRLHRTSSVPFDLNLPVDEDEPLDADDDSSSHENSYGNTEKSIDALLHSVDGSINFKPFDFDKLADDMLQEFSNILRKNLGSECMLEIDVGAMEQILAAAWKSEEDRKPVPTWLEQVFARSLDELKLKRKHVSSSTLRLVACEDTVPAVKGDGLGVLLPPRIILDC

binding result [1]: binds
B1: Glutathione-S-transferase (GST)-tagged D14L (receptor, rice (Oryza sativa), UniProt Q10J20 1-271, looked up)
chain: MGIVEEAHNLRVVGEGKRGVIVLAHGFGTDQSVWKHLVPHLVADYRVVLFDTMGAGPTNPDYFDFSRYATLEGYALDLLAILQELRVASCIYVGHSVSAVIGAIASISRPDLFSKLVLLSASPRYLNDVDYYGGFEQEDLDELFEAMGSNYKAWCSGFAPLCVGGDMESVAVQEFSRTLFNIRPDIALSVAQTIFQSDVRSLLPLVTVPCHIVQSTKDLAVPVVVSEYLHKHLGGDSIVEVMPSEGHLPQLSSPDIVIPVLLRHIQHDIAV

binding result [2]: binds
B2: GST-D14 (50-318) (receptor, rice (Oryza sativa), UniProt Q10QA5 50-318, looked up)
chain: APSGAKLLQILNVRVVGSGERVVVLSHGFGTDQSAWSRVLPYLTRDHRVVLYDLVCAGSVNPDHFDFRRYDNLDAYVDDLLAILDALRIPRCAFVGHSVSAMIGILASIRRPDLFAKLVLIGASPRFLNDSDYHGGFELEEIQQVFDAMGANYSAWATGYAPLAVGADVPAAVQEFSRTLFNMRPDISLHVCQTVFKTDLRGVLGMVRAPCVVVQTTRDVSVPASVAAYLKAHLGGRTTVEFLQTEGHLPHLSAPSLLAQVLRRALARY
